± gives the standard deviation of the averaged measurements.
B1: library; numbered along this chain (parent)
chain: MNIQIGELAKRTACPVVTIRFYEQEGLLPPPGRSRGNFRLYGEEHVERLQFIRHCRSLDMPLSDVRTLLSYRKRPDQDCGEVNMLLDEHIRQVESRIGALLELKHHLVELREACSGARPAQSCGILQGLSDCVCDTRGTTAHPSD

Experiments:
[1] = variants of: B1; test: sfGFP reporter fluorescence (15 h) (µM FITC); higher = higher leak; conditions: library round: Round 0; ligand: none
Experimental: (§1)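 Cell-free (BL21 Star DE3 extract, PANOx-SP) biosensing: 1 µL Echo-assembled reactions with linear PbrR variant templates (5 nM) and pPbrR-sfGFP reporter, with 1 µM Pb (lead chloride), 30 µM Zn (zinc acetate) or no ligand; endpoint sfGFP fluorescence after 15 h at 30 °C, calibrated as µM FITC. Round 0 library (alanine scan, site saturation, combinatorial) of PbrR from Cupriavidus metallidurans; 2 biological replicates.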

[2] = variants of: B1; test: sfGFP reporter fluorescence (15 h) (µM FITC); higher = stronger transcriptional activation; conditions: library round: Round 0
Experimental: as §1

Work on MNIQIGELAKRTACPDVTIRFYEQEGLLPPPGRSRGNFRLYGEEHVERLQFIRHCRSLDMPLSDVRTLLSYRKRPDQDCGEVNMLLDEHIRQVESRIGALLELKHHLVELREACSGARPAQSCGILQGLSDCVCDTRGTTAHPSD yielded a sfGFP reporter fluorescence [1] of 0.0649 ± 0.0015, a sfGFP reporter fluorescence ([2]; ligand: 1 µM Pb) of 0.0975 ± 0.0026 and a sfGFP reporter fluorescence ([2]; ligand: 30 µM Zn) of 0.9703 ± 0.0039.

With MNIQIGELAKRTACPEVTIRFYEQEGLLPPPGRSRGNFRLYGEEHVERLQFIRHCRSLDMPLSDVRTLLSYRKRPDQDCGEVNMLLDEHIRQVESRIGALLELKHHLVELREACSGARPAQSCGILQGLSDCVCDTRGTTAHPSD the sfGFP reporter fluorescence [1] was 0.06341 ± 0.00052, the sfGFP reporter fluorescence ([2]; ligand: 1 µM Pb) was 0.0762 ± 0.001 and the sfGFP reporter fluorescence ([2]; ligand: 30 µM Zn) was 0.986 ± 0.046.

For MNIQIGELAKRTACPFVTIRFYEQEGLLPPPGRSRGNFRLYGEEHVERLQFIRHCRSLDMPLSDVRTLLSYRKRPDQDCGEVNMLLDEHIRQVESRIGALLELKHHLVELREACSGARPAQSCGILQGLSDCVCDTRGTTAHPSD, the sfGFP reporter fluorescence [1] was 0.0623 ± 0.0015, the sfGFP reporter fluorescence ([2]; ligand: 1 µM Pb) was 0.0641 and the sfGFP reporter fluorescence ([2]; ligand: 30 µM Zn) was 0.107 ± 0.0029.

For MNIQIGELAKRTACPGVTIRFYEQEGLLPPPGRSRGNFRLYGEEHVERLQFIRHCRSLDMPLSDVRTLLSYRKRPDQDCGEVNMLLDEHIRQVESRIGALLELKHHLVELREACSGARPAQSCGILQGLSDCVCDTRGTTAHPSD, the sfGFP reporter fluorescence [1] was 0.0594 ± 0.0026, the sfGFP reporter fluorescence ([2]; ligand: 1 µM Pb) was 0.0812 ± 0.0018 and the sfGFP reporter fluorescence ([2]; ligand: 30 µM Zn) was 0.493 ± 0.014.

MNIQIGELAKRTACPHVTIRFYEQEGLLPPPGRSRGNFRLYGEEHVERLQFIRHCRSLDMPLSDVRTLLSYRKRPDQDCGEVNMLLDEHIRQVESRIGALLELKHHLVELREACSGARPAQSCGILQGLSDCVCDTRGTTAHPSD showed a sfGFP reporter fluorescence [1] of 0.06542 ± 0.00026, a sfGFP reporter fluorescence ([2]; ligand: 1 µM Pb) of 0.109 ± 0.0086 and a sfGFP reporter fluorescence ([2]; ligand: 30 µM Zn) of 0.447 ± 0.0096.

MNIQIGELAKRTACPIVTIRFYEQEGLLPPPGRSRGNFRLYGEEHVERLQFIRHCRSLDMPLSDVRTLLSYRKRPDQDCGEVNMLLDEHIRQVESRIGALLELKHHLVELREACSGARPAQSCGILQGLSDCVCDTRGTTAHPSD gave a sfGFP reporter fluorescence [1] of 0.05864 ± 0.00052, a sfGFP reporter fluorescence ([2]; ligand: 1 µM Pb) of 0.0768 ± 0.0018 and a sfGFP reporter fluorescence ([2]; ligand: 30 µM Zn) of 0.981 ± 0.061.

With MNIQIGELAKRTACPKVTIRFYEQEGLLPPPGRSRGNFRLYGEEHVERLQFIRHCRSLDMPLSDVRTLLSYRKRPDQDCGEVNMLLDEHIRQVESRIGALLELKHHLVELREACSGARPAQSCGILQGLSDCVCDTRGTTAHPSD the sfGFP reporter fluorescence [1] was 0.0641 ± 0.0021, the sfGFP reporter fluorescence ([2]; ligand: 1 µM Pb) was 0.115 ± 0.0021 and the sfGFP reporter fluorescence ([2]; ligand: 30 µM Zn) was 1.93 ± 0.075.
